The values that follow are results of earlier work, collected in publication PMC3521240.

The target of the data set is PTX3 (Homo sapiens) (UniProt P26022).
Sequence of PTX3 (Homo sapiens) (P26022 18-381): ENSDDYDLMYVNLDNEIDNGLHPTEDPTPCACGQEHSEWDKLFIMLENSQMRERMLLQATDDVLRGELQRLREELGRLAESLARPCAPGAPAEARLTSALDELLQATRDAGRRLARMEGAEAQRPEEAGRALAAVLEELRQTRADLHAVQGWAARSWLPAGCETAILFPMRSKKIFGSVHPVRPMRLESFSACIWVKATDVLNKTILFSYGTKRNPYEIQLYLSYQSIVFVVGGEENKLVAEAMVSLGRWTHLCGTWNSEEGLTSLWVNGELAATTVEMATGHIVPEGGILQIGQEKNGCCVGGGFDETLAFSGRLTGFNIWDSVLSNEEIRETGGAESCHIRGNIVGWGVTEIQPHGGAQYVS

Sequence of AZU1 (P20160 27-248): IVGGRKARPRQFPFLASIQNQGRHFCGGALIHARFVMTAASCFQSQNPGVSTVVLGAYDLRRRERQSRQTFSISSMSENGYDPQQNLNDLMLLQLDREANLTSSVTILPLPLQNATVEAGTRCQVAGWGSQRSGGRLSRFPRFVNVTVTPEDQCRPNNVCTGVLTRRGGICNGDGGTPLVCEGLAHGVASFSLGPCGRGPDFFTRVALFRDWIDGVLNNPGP

AZU1 (from UniProt P20160): the dissociation constant (Kd) is 22 nM.
